The source of these data is patent US20090263323A1.

In the test the target is NADPH oxidase 3 (NOX3). Briefly: cell-based or functional assay.

Substance p67^phox/NOXA2 came in with a PMA-induced superoxide generation of NOX3 (co-transfected HEK293 cells) of 2 fold.
